{"source": "paper PMC7618200", "about": "(The Biochemical journal, 2025)", "parents": {"B1": {"name": "MyD88 peptide 125AEKPLQVAAVDSSVPRT141 (17-mer) [human] / SPOP MATH domain (SPOP^MATH; residues 28-166) [human] (parent complex)", "chain 1": "AEKPLQVAAVDSSVPRT", "chain 2": "KVVKFSYMWTINNFSFCREEMGEVIKSSTFSSGANDKLKWCLRVNPKGLDEESKDYLSLYLLLVSCPKSEVRAKFKFSILNAKGEETKAMESQRAYRFVQGKDWGFKKFIRRDFLLDEANGLLPDDKLTLFCEVSVVQD"}}}
{"variants_of": "B1", "assay": "FP competition assay; competitor against fluorescently labeled Puc peptide", "units": {"IC50": "µM"}}
{"variant": "chain 1 AEKPLQVAAVAAAVPRT", "note": "[chain 1 D11A, chain 1 S12A, chain 1 S13A]", "IC50": "~2110"}
